Earlier results, collected in publication PMC5342629.
Where two headings read alike, the source gives them in different places.

Legend:
[1] = biological target: Cdc4 (Saccharomyces cerevisiae) (UniProt P07834)
[2] = biological target: Cdc4 (Saccharomyces cerevisiae) (UniProt P07834); remark: listed apart in the source
[3] = biological target: Cdc4 (Saccharomyces cerevisiae) (UniProt P07834); remark: listed apart in the source

UniProt P07834, sequence (P07834 whole entry): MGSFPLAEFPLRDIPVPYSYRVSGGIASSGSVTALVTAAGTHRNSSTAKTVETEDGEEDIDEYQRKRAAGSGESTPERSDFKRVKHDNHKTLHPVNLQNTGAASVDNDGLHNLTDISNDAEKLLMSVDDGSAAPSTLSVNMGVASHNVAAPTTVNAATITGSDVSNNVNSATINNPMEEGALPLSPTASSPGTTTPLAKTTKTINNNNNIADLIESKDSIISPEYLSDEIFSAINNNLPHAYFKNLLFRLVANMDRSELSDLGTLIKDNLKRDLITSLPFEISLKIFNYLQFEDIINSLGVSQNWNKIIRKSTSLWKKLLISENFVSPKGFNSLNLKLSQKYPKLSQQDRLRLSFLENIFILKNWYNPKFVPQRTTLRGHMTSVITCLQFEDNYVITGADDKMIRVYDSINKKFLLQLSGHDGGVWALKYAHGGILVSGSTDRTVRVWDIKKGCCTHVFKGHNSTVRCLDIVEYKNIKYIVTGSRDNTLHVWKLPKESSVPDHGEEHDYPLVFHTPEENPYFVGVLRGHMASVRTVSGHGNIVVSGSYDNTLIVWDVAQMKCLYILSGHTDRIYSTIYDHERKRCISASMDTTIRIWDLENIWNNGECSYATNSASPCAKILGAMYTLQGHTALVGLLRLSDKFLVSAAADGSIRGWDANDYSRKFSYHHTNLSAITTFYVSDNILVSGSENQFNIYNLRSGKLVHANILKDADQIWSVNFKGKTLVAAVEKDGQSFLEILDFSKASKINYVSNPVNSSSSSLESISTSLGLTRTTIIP

Row | Substance | Kd [1] | Kd [2] | Kd [3]
1 | Sic1 20-residue peptide (from UniProt P38634) | 2.4 µM | – | –
2 | Sic1 (from UniProt P38634) | – | 1 µM | > 50 µM
